In publication doi:10.1101/2025.10.15.682582:

What was measured:
[1] = molecular target: Noregen, recombinant norrin-derived growth factor (human) (UniProt Q00604); assay: intact LC/ES-MS
[2] = molecular target: Noregen, recombinant norrin-derived growth factor (human) (UniProt Q00604); assay: AUC

Noregen, recombinant norrin-derived growth factor, sequence (Q00604 25-133): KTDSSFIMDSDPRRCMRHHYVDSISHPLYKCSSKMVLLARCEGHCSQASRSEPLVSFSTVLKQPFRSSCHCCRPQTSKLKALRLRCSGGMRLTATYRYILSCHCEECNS

percent present as dimer [1]: 98% | stoichiometry N [1]: 2 | percent of total content in the dimer peak [2]: 99.9% | stoichiometry N [2]: 2
Substance: Noregen, recombinant norrin-derived growth factor (from UniProt Q00604 25-133) (ligand)
